Measured values: patent US20160272683A1 (Novo Nordisk, published 2016)
Numbered stars: 1 amine (or outer) side, 2 acyl side, 3 side chain; on linkers, the order of the positions; unused ones are H or OH. Side chains are listed from the residue outwards. Ends that are not written are not given here. * marks the point of attachment. C20 diacid = O=C(O)CCCCCCCCCCCCCCCCCCC(=O)*; C18 diacid = O=C(O)CCCCCCCCCCCCCCCCC(=O)*; γGlu = O=C(O)[C@H](CCC(=O)[*:2])N[*:1]

T1: human calcitonin receptor on BHK570/CRE-luc cells (human, UniProt P30988 25-474)
T1 sequence (looked up): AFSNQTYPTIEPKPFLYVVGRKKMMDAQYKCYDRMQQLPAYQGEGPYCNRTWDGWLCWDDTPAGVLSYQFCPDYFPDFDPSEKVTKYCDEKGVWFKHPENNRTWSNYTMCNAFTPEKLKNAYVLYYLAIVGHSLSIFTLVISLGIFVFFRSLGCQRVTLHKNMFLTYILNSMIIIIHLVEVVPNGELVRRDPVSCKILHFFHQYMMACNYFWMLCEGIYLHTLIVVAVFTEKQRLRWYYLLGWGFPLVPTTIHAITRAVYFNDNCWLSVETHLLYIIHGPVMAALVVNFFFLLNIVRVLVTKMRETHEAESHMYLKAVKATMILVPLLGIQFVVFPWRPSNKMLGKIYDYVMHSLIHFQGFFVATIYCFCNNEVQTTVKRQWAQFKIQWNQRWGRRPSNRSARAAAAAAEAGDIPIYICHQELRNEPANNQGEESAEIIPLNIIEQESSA

T2: human amylin 3(a) receptor (human calcitonin receptor co-expressed with RAMP-3) on BHK570/CRE-luc cells (human, UniProt P30988 25-474; O60896 24-148)
T2 sequence (looked up) 1: T1 sequence (looked up)
T2 sequence (looked up) 2: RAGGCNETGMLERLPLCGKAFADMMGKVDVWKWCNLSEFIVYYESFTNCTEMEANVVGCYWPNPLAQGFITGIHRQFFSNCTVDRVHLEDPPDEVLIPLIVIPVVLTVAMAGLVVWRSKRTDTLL

B1: [N-terminal(C20 diacid-gGlu), des1, 4G, 9V, 23Y, 30S, 31G, 32T, 33Y]mimylin (peptide)
peptide: {C20 diacid-γGlu}-ASGLSTAVLGRLSAELHELATYPRTETGSGTY-NH2
SMILES: CC(C)C[C@H](NC(=O)CNC(=O)[C@H](CO)NC(=O)[C@H](C)NC(=O)CC[C@H](NC(=O)CCCCCCCCCCCCCCCCCCC(=O)O)C(=O)O)C(=O)N[C@@H](CO)C(=O)N[C@H](C(=O)N[C@@H](C)C(=O)N[C@H](C(=O)N[C@@H](CC(C)C)C(=O)NCC(=O)N[C@@H](CCCNC(=N)N)C(=O)N[C@@H](CC(C)C)C(=O)N[C@@H](CO)C(=O)N[C@@H](C)C(=O)N[C@@H](CCC(=O)O)C(=O)N[C@@H](CC(C)C)C(=O)N[C@@H](Cc1c[nH]cn1)C(=O)N[C@@H](CCC(=O)O)C(=O)N[C@@H](CC(C)C)C(=O)N[C@@H](C)C(=O)N[C@H](C(=O)N[C@@H](Cc1ccc(O)cc1)C(=O)N1CCC[C@H]1C(=O)N[C@@H](CCCNC(=N)N)C(=O)N[C@H](C(=O)N[C@@H](CCC(=O)O)C(=O)N[C@H](C(=O)NCC(=O)N[C@@H](CO)C(=O)NCC(=O)N[C@H](C(=O)N[C@@H](Cc1ccc(O)cc1)C(N)=O)[C@@H](C)O)[C@@H](C)O)[C@@H](C)O)[C@@H](C)O)C(C)C)[C@@H](C)O
B2: [N-terminal(C18 diacid-gGlu), des1, 6T, 9V, 14T, 21E, 30T, 31G, 32T]mimylin (peptide)
peptide: {C18 diacid-γGlu}-ASELTTAVLGRLTAELHELETLPRTETGTGTP-NH2
SMILES: CC(C)C[C@H](NC(=O)[C@H](CCC(=O)O)NC(=O)[C@H](C)NC(=O)[C@@H](NC(=O)[C@H](CC(C)C)NC(=O)[C@H](CCCNC(=N)N)NC(=O)CNC(=O)[C@H](CC(C)C)NC(=O)[C@@H](NC(=O)[C@H](C)NC(=O)[C@@H](NC(=O)[C@@H](NC(=O)[C@H](CC(C)C)NC(=O)[C@H](CCC(=O)O)NC(=O)[C@H](CO)NC(=O)[C@H](C)NC(=O)CC[C@H](NC(=O)CCCCCCCCCCCCCCCCC(=O)O)C(=O)O)[C@@H](C)O)[C@@H](C)O)C(C)C)[C@@H](C)O)C(=O)N[C@@H](Cc1c[nH]cn1)C(=O)N[C@@H](CCC(=O)O)C(=O)N[C@@H](CC(C)C)C(=O)N[C@@H](CCC(=O)O)C(=O)N[C@H](C(=O)N[C@@H](CC(C)C)C(=O)N1CCC[C@H]1C(=O)N[C@@H](CCCNC(=N)N)C(=O)N[C@H](C(=O)N[C@@H](CCC(=O)O)C(=O)N[C@H](C(=O)NCC(=O)N[C@H](C(=O)NCC(=O)N[C@H](C(=O)N1CCC[C@H]1C(N)=O)[C@@H](C)O)[C@@H](C)O)[C@@H](C)O)[C@@H](C)O)[C@@H](C)O
B3: [N-terminal(C20 diacid-gGlu), des1, 4G, 15Q, 21Q, 23Y, 30S, 31Q, 32T, 33Y]mimylin (peptide)
peptide: {C20 diacid-γGlu}-ASGLSTAALGRLSQELHELQTYPRTETGSQTY-NH2
SMILES: CC(C)C[C@H](NC(=O)CNC(=O)[C@H](CO)NC(=O)[C@H](C)NC(=O)CC[C@H](NC(=O)CCCCCCCCCCCCCCCCCCC(=O)O)C(=O)O)C(=O)N[C@@H](CO)C(=O)N[C@H](C(=O)N[C@@H](C)C(=O)N[C@@H](C)C(=O)N[C@@H](CC(C)C)C(=O)NCC(=O)N[C@@H](CCCNC(=N)N)C(=O)N[C@@H](CC(C)C)C(=O)N[C@@H](CO)C(=O)N[C@@H](CCC(N)=O)C(=O)N[C@@H](CCC(=O)O)C(=O)N[C@@H](CC(C)C)C(=O)N[C@@H](Cc1c[nH]cn1)C(=O)N[C@@H](CCC(=O)O)C(=O)N[C@@H](CC(C)C)C(=O)N[C@@H](CCC(N)=O)C(=O)N[C@H](C(=O)N[C@@H](Cc1ccc(O)cc1)C(=O)N1CCC[C@H]1C(=O)N[C@@H](CCCNC(=N)N)C(=O)N[C@H](C(=O)N[C@@H](CCC(=O)O)C(=O)N[C@H](C(=O)NCC(=O)N[C@@H](CO)C(=O)N[C@@H](CCC(N)=O)C(=O)N[C@H](C(=O)N[C@@H](Cc1ccc(O)cc1)C(N)=O)[C@@H](C)O)[C@@H](C)O)[C@@H](C)O)[C@@H](C)O)[C@@H](C)O
B4: [des1, 4G, 15Q, 21Q, 23Y, 30S, 31K(C20 diacid-gGlu), 32T, 33Y]mimylin (peptide)
peptide: ASGLSTAALGRLSQELHELQTYPRTETGSK([γGlu-C20 diacid])TY-NH2
modifications: N-terminus assumed
SMILES: CC(C)C[C@H](NC(=O)CNC(=O)[C@H](CO)NC(=O)[C@H](C)N)C(=O)N[C@@H](CO)C(=O)N[C@H](C(=O)N[C@@H](C)C(=O)N[C@@H](C)C(=O)N[C@@H](CC(C)C)C(=O)NCC(=O)N[C@@H](CCCNC(=N)N)C(=O)N[C@@H](CC(C)C)C(=O)N[C@@H](CO)C(=O)N[C@@H](CCC(N)=O)C(=O)N[C@@H](CCC(=O)O)C(=O)N[C@@H](CC(C)C)C(=O)N[C@@H](Cc1c[nH]cn1)C(=O)N[C@@H](CCC(=O)O)C(=O)N[C@@H](CC(C)C)C(=O)N[C@@H](CCC(N)=O)C(=O)N[C@H](C(=O)N[C@@H](Cc1ccc(O)cc1)C(=O)N1CCC[C@H]1C(=O)N[C@@H](CCCNC(=N)N)C(=O)N[C@H](C(=O)N[C@@H](CCC(=O)O)C(=O)N[C@H](C(=O)NCC(=O)N[C@@H](CO)C(=O)N[C@@H](CCCCNC(=O)CC[C@H](NC(=O)CCCCCCCCCCCCCCCCCCC(=O)O)C(=O)O)C(=O)N[C@H](C(=O)N[C@@H](Cc1ccc(O)cc1)C(N)=O)[C@@H](C)O)[C@@H](C)O)[C@@H](C)O)[C@@H](C)O)[C@@H](C)O
B5: [N-terminal(C20 diacid), des1, 4G, 15Q, 21Q, 23Y, 30S, 31G, 32T, 33Y]mimylin (peptide)
peptide: {C20 diacid}-ASGLSTAALGRLSQELHELQTYPRTETGSGTY-NH2
SMILES: CC(C)C[C@H](NC(=O)CNC(=O)[C@H](CO)NC(=O)[C@H](C)NC(=O)CCCCCCCCCCCCCCCCCCC(=O)O)C(=O)N[C@@H](CO)C(=O)N[C@H](C(=O)N[C@@H](C)C(=O)N[C@@H](C)C(=O)N[C@@H](CC(C)C)C(=O)NCC(=O)N[C@@H](CCCNC(=N)N)C(=O)N[C@@H](CC(C)C)C(=O)N[C@@H](CO)C(=O)N[C@@H](CCC(N)=O)C(=O)N[C@@H](CCC(=O)O)C(=O)N[C@@H](CC(C)C)C(=O)N[C@@H](Cc1c[nH]cn1)C(=O)N[C@@H](CCC(=O)O)C(=O)N[C@@H](CC(C)C)C(=O)N[C@@H](CCC(N)=O)C(=O)N[C@H](C(=O)N[C@@H](Cc1ccc(O)cc1)C(=O)N1CCC[C@H]1C(=O)N[C@@H](CCCNC(=N)N)C(=O)N[C@H](C(=O)N[C@@H](CCC(=O)O)C(=O)N[C@H](C(=O)NCC(=O)N[C@@H](CO)C(=O)NCC(=O)N[C@H](C(=O)N[C@@H](Cc1ccc(O)cc1)C(N)=O)[C@@H](C)O)[C@@H](C)O)[C@@H](C)O)[C@@H](C)O)[C@@H](C)O
B6: [N-terminal(C18 diacid-gGlu), des1, 4G, 15Q, 21Q, 23Y, 30S, 31G, 32T, 33Y]mimylin (peptide)
peptide: {C18 diacid-γGlu}-ASGLSTAALGRLSQELHELQTYPRTETGSGTY-NH2
SMILES: CC(C)C[C@H](NC(=O)CNC(=O)[C@H](CO)NC(=O)[C@H](C)NC(=O)CC[C@H](NC(=O)CCCCCCCCCCCCCCCCC(=O)O)C(=O)O)C(=O)N[C@@H](CO)C(=O)N[C@H](C(=O)N[C@@H](C)C(=O)N[C@@H](C)C(=O)N[C@@H](CC(C)C)C(=O)NCC(=O)N[C@@H](CCCNC(=N)N)C(=O)N[C@@H](CC(C)C)C(=O)N[C@@H](CO)C(=O)N[C@@H](CCC(N)=O)C(=O)N[C@@H](CCC(=O)O)C(=O)N[C@@H](CC(C)C)C(=O)N[C@@H](Cc1c[nH]cn1)C(=O)N[C@@H](CCC(=O)O)C(=O)N[C@@H](CC(C)C)C(=O)N[C@@H](CCC(N)=O)C(=O)N[C@H](C(=O)N[C@@H](Cc1ccc(O)cc1)C(=O)N1CCC[C@H]1C(=O)N[C@@H](CCCNC(=N)N)C(=O)N[C@H](C(=O)N[C@@H](CCC(=O)O)C(=O)N[C@H](C(=O)NCC(=O)N[C@@H](CO)C(=O)NCC(=O)N[C@H](C(=O)N[C@@H](Cc1ccc(O)cc1)C(N)=O)[C@@H](C)O)[C@@H](C)O)[C@@H](C)O)[C@@H](C)O)[C@@H](C)O
B7: [N-terminal(C20 diacid-gGlu), des1, 4G, 15Q, 21E, 23Y, 30S, 31G, 32T, 33Y]mimylin (peptide)
peptide: {C20 diacid-γGlu}-ASGLSTAALGRLSQELHELETYPRTETGSGTY-NH2
SMILES: CC(C)C[C@H](NC(=O)CNC(=O)[C@H](CO)NC(=O)[C@H](C)NC(=O)CC[C@H](NC(=O)CCCCCCCCCCCCCCCCCCC(=O)O)C(=O)O)C(=O)N[C@@H](CO)C(=O)N[C@H](C(=O)N[C@@H](C)C(=O)N[C@@H](C)C(=O)N[C@@H](CC(C)C)C(=O)NCC(=O)N[C@@H](CCCNC(=N)N)C(=O)N[C@@H](CC(C)C)C(=O)N[C@@H](CO)C(=O)N[C@@H](CCC(N)=O)C(=O)N[C@@H](CCC(=O)O)C(=O)N[C@@H](CC(C)C)C(=O)N[C@@H](Cc1c[nH]cn1)C(=O)N[C@@H](CCC(=O)O)C(=O)N[C@@H](CC(C)C)C(=O)N[C@@H](CCC(=O)O)C(=O)N[C@H](C(=O)N[C@@H](Cc1ccc(O)cc1)C(=O)N1CCC[C@H]1C(=O)N[C@@H](CCCNC(=N)N)C(=O)N[C@H](C(=O)N[C@@H](CCC(=O)O)C(=O)N[C@H](C(=O)NCC(=O)N[C@@H](CO)C(=O)NCC(=O)N[C@H](C(=O)N[C@@H](Cc1ccc(O)cc1)C(N)=O)[C@@H](C)O)[C@@H](C)O)[C@@H](C)O)[C@@H](C)O)[C@@H](C)O

biological target: T1, human calcitonin receptor on …; experiment: cell-based or functional assay

Compared with B1, B2 is lower in “hCTR funct. EC50 (pM), tested with HSA” value: 53 pM for the first, 22 pM for the second.

Compared with B3, B4 is higher in “hCTR funct. EC50 (pM), tested with HSA” value: 108 pM for the first, 113 pM for the second.

Compared with {C18 diacid-γGlu}-ASELTTAVLGRLEAELHELTTLPRTETGTGTP-NH2 [[N-terminal(C18 diacid-gGlu), des1, 6T, 9V, 14E, 21T, 30T, 31G, 32T]mimylin], B5 is higher in “hCTR funct. EC50 (pM), tested with HSA” value: 31 pM for the first, 49 pM for the second.

First: B6
Second: B7
The “hCTR funct. EC50 (pM), tested with HSA” value of the first is lower: 53 pM for the first, 68 pM for the second.

biological target: T2, human amylin 3(a) receptor (human …); experiment: cell-based or functional assay

Compared with B1, B2 is higher in “hAmylin-R funct. EC50 (pM), tested with HSA” value (shortened to “hAmylin-R funct. EC50 (pM)”): 122 pM for the first, 179 pM for the second.

First: B3
Second: B4
The “hAmylin-R funct. EC50 (pM)” value of the first is lower: 158 pM for the first, 335 pM for the second.

Going from {C18 diacid-γGlu}-ASELTTAVLGRLEAELHELTTLPRTETGTGTP-NH2 [[N-terminal(C18 diacid-gGlu), des1, 6T, 9V, 14E, 21T, 30T, 31G, 32T]mimylin] to B5, the “hAmylin-R funct. EC50 (pM)” value falls from 157 pM to 52 pM.

Going from B6 to B7, the “hAmylin-R funct. EC50 (pM)” value rises from 70 pM to 150 pM.
